Results from patent US20220169693A1, “Screening Assays, Modulators and Modulation of Intracellular Signalling Mediated by Immunoglobulin Superfamily Cell Adhesion Molecules” (Monash University, priority 2018, published 2022).
One block for each molecule: values may come before it.

Tests used:
AT1R = target: T1, AT1R (Homo sapiens, UniProt P30556); test: Functional competition: Ang II-induced p65/PCNA expression in AT1R-CHO cells transfected with full length mutant S391A-RAGE; type: cell-based; conditions: for transactivation of the over-expressed cytosolic tail in the presence of S391A-RAGE1-404 (p65): Ang II 1 μM 2 h (FIG. 7A)
T1 construct: Rluc8; expressed in transfected cells; S391A-RAGE transiently transfected
T1 sequence (P30556 1-359): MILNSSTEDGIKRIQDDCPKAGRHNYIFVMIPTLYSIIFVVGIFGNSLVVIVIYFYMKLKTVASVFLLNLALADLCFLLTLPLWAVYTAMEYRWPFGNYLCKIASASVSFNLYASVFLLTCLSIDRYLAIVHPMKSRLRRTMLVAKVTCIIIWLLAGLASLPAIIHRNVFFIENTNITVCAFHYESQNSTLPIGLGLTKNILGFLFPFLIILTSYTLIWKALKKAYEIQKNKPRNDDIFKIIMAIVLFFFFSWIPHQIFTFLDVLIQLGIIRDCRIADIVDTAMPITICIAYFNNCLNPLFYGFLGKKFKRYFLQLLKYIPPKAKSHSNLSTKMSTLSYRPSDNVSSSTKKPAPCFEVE
Experimental: Adult retinal pigment epithelial (ARPE) cells were cultured in Dulbecco's modified Eagle's medium (DMEM)/F12 endothelial cell growth supplement (ECGS) supplemented media. Chinese Hamster Ovary (CHO) cells were cultured using F12 media (10% FCS with 2 mM glutamine). Human microvascular endothelial cells (HMEC) were cultured in MCDB 131 medium (10% FCS with 10 mM glutamine, EGF and hydrocortisone).
100 ng of AT1R-Rluc8 construct was transfected into CHO cells using Lipofectamine 2000 (Thermo). Stable transfectants were selected using G418. AT1R-CHO were then transiently transfected with the IgSF CAM and/or RAGE constructs using Lipofectamine 2000 (Invitrogen) and incubated for 16h.
After 2 hours of exposure to Ang II (1 μM) cells were placed in Trizol, mRNA extracted and cDNA synthesized. Changes in the gene expression of the NFκB subunit, p65 (RelA) or NFκB-activated target genes (e.g ICAM-1) were estimated by quantitative real-time RT-PCR, performed using the TaqMan system based on real-time detection of accumulated fluorescence (ABI Prism 7700, Perkin-Elmer Inc, PE Biosystems, Foster City, Calif., USA). Gene expression was normalized to 18S mRNA and reported as fold change compared to the level of expression in untreated control mice/cells, which were given an arbitrary value of 1.

RAGE/Rluc8 = target: T2, RAGE/Rluc8 (UniProt Q15109 23-404); test: BRET saturation assay (FIGS. 13A, 13D)
T2 construct: whole, on cells; not shown: Rluc8, a variant of Renilla luciferase
Experimental: (§1) The BRET ratio was calculated by subtracting the ratio of ‘acceptor emission’ over ‘donor emission’ for a cell sample expressing Rluc8-tagged protein alone from the same ratio for a cell sample expressing both Rluc8 and Venus-tagged proteins. Alternatively, the ligand-induced BRET signal was calculated by subtracting the ratio of ‘acceptor emission’ over ‘donor emission’ for a vehicle-treated cell sample from the same ratio for a second aliquot of the same cells treated with agonist.
(§2) For the BRET kinetic assays, the final pre-treatment reading is presented at the zero time point (time of ligand/vehicle addition). For the BRET saturation assays, fluorescence after light excitation was measured on an EnVision 2102 multi-label plate reader (PerkinElmer, Glen Waverley, Victoria, Australia) using a 485/14 excitation filter, 535/25 emission filter and D505 mirror. The fluorescence/luminescence ratio was generated by dividing the fluorescence values in arbitrary units (obtained with the EnVision) by the luminescence values also in arbitrary units (obtained as part of the BRET assay).

[1] = target: T3, untagged RAGE (RAGE cDNA co-transfected) (UniProt Q15109 23-404); test: BRET saturation assay, competition with EpCAM/Rluc8 (FIG. 11D)
T3 construct: whole, on cells
Experimental: as §1, §2

[2] = target: T4, Rluc8-labelled CADM4 (CADM4/Rluc8) (UniProt Q8NFZ8 21-388); test: BRET saturation assay (FIG. 12D)
T4 construct: whole, on cells; not shown: Rluc8, a variant of Renilla luciferase
T4 sequence (looked up): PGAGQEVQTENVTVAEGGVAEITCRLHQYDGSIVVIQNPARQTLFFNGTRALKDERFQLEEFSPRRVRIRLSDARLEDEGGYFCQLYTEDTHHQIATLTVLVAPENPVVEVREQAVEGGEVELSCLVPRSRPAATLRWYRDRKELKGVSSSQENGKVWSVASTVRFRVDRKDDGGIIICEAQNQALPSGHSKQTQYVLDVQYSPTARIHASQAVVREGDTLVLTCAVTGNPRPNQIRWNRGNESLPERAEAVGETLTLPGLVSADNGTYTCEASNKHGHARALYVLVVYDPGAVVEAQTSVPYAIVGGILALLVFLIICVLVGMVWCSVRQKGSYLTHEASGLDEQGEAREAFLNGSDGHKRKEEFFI
Experimental: as §1, §2

[3] = target: T5, Venus-labelled mouse ALCAM (ALCAM/Venus) (mouse, UniProt Q61490 28-583); test: Receptor-HIT BRET: ALCAM/Venus + β-arrestin2/Rluc8 ± untagged AT1, after AngII
T5 construct: also called mouse ALCAM/Venus; not shown: Venus, a variant of green fluorescent protein
T5 sequence: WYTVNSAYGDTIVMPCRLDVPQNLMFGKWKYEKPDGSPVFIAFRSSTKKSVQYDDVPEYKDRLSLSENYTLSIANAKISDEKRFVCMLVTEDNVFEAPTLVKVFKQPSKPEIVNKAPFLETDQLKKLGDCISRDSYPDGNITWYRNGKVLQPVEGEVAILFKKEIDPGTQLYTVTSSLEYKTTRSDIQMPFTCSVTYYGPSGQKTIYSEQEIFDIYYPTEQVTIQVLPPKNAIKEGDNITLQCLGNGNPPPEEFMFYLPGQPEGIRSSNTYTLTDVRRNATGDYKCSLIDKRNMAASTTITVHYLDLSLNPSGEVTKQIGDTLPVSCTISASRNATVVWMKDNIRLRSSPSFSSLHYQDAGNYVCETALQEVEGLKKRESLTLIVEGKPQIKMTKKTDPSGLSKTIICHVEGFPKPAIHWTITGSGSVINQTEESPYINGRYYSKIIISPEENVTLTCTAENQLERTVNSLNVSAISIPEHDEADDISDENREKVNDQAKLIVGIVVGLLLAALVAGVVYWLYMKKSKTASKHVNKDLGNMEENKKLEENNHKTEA
Experimental: as §1
(§3) GPCRs untagged with respect to the BRET system were then co-expressed in the HEK293FT cells, or the cells were transfected with pcDNA3 as a control. […] A ligand-induced BRET signal was indicative of recruitment of the BRET-tagged β-arrestin2 proximal to the BRET-tagged CAM, thereby indicating close proximity between the CAM and the activated GPCR.

[4] = target: T4, Rluc8-labelled CADM4 (CADM4/Rluc8); test: Receptor-HIT BRET: CADM4/Rluc8 + β-arrestin2/Venus ± untagged AT1, after AngII
Experimental: as §1, §3

human ALCAM/Rluc8 = target: T6, human ALCAM/Rluc8 (human, UniProt Q13740 28-583); test: Receptor-HIT BRET: ALCAM/Rluc8 + β-arrestin2/Venus ± untagged AT1, after AngII
T6 construct: also called ALCAM/Rluc8 (human ALCAM); not shown: Rluc8, a variant of Renilla luciferase
T6 sequence: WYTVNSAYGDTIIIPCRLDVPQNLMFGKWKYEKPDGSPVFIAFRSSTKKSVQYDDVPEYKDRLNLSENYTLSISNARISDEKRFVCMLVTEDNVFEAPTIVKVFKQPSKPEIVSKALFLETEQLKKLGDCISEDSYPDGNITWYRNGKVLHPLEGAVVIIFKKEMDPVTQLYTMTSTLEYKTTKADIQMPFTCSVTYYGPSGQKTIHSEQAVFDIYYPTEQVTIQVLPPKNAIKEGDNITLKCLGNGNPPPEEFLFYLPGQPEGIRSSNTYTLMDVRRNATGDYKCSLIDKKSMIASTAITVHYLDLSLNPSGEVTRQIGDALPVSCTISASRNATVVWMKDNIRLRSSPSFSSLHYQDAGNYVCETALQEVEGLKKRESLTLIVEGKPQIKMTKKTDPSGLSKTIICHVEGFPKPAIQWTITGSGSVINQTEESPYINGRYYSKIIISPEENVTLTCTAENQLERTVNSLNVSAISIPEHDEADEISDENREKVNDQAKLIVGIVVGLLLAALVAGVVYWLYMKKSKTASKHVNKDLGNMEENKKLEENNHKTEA
Experimental: as §1, §3

mouse ALCAM/Rluc8 = target: T7, mouse ALCAM/Rluc8 (mouse, UniProt Q61490 28-583); test: as above
T7 construct: also called ALCAM/Rluc8 (mouse ALCAM); not shown: Rluc8, a variant of Renilla luciferase
T7 sequence: T5 sequence
Experimental: as §1, §3

[5] = target: T8, Venus-labelled CADM4 (CADM4/Venus) (UniProt Q8NFZ8 21-388); test: Receptor-HIT BRET: CADM4/Venus + β-arrestin2/Rluc8 ± untagged AT1, after AngII
T8 construct: whole, on cells; not shown: Venus, a variant of green fluorescent protein
T8 sequence (looked up): T4 sequence (looked up)
Experimental: as §1, §3

T2 sequence (Q15109 23-404): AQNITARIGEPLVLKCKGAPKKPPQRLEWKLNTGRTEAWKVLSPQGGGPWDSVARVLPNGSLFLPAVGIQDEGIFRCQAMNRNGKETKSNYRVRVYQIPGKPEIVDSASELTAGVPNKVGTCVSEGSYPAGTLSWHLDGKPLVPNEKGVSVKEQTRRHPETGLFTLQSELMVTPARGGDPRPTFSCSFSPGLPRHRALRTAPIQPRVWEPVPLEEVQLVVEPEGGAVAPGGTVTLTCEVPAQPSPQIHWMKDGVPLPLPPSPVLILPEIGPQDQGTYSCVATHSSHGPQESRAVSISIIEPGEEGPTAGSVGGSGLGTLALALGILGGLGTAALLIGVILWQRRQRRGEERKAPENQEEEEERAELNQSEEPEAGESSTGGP
T3 sequence (Q15109 23-404): as above

- binding result (RAGE/Rluc8): binds
- binding result [1]: binds
- binding result [2]: binds
B1: Venus-tagged Angiotensin II receptor 1 (AT1/Venus) (receptor, UniProt P30556 1-359, looked up)
chain: T1 sequence (P30556 1-359)
notes: whole, on cells; not shown: Venus, a variant of green fluorescent protein

- binding result [3]: binds
- binding result [4]: binds
- binding result (human ALCAM/Rluc8): binds
- binding result (mouse ALCAM/Rluc8): binds
- binding result [5]: binds
B2: AT1 (untagged, co-expressed in HEK293FT cells) (receptor, UniProt P30556 1-359, looked up)
chain: T1 sequence (P30556 1-359)
notes: whole, on cells; Untagged with respect to BRET (Receptor-HIT assays); also called Angiotensin II receptor 1

The next lines start with the molecule.

Molecule: MKKSKTASKHVNKDLGNMEENKKLEENNHKTEA (Synthetic peptide - Truncated amino acid sequence of human ALCAM protein corresponding to residues 551 to 583 (corresponding to the cytosolic tail of ALCAM)) [ALCAM551-583]
- transactivation of the over-expressed cytosolic tail in the presence of S391A-RAGE1-404 (p65) (AT1R; AT1R-CHO cells): able to overcome inhibition of transactivation

Molecule: MSVRQKGSYLTHEASGLDEQGEAREAFLNGSDGHKRKEEFFI [CADM4336-388]
- transactivation of the over-expressed cytosolic tail in the presence of S391A-RAGE1-404 (p65) (AT1R; AT1R-CHO cells): able to overcome inhibition of transactivation

Molecule: S391A-RAGE1-404: full length human mutant S391A-RAGE
- ability of Ang II to induce p65-NFκB expression after transfection of the mutant (AT1R; AT1R-CHO cells, Ang II 1 μM 2 h, vs pCIneo (FIG. 7A)): fails to confer the ability of Ang II to induce expression
- transactivation by AT1R as indicated by PCNA expression after transfection of the mutant (AT1R; Ang II 1 μM 2 h, vs pCIneo (FIG. 7B)): unable to be transactivated
